# B1: GFP-MG53 C242A mutant (other, mouse, UniProt Q1XH17 1-477, looked up)
# chain: MSAAPGLLRQELSCPLCLQLFDAPVTAECGHSFCRACLIRVAGEPAADGTVACPCCQAPTRPQALSTNLQLSRLVEGLAQVPQGHCEEHLDPLSIYCEQDRTLVCGVCASLGSHRGHRLLPAAEAQARLKTQLPQQKMQLQEACMRKEKTVAVLEHQLVEVEETVRQFRGAVGEQLGKMRMFLAALESSLDREAERVRGDAGVALRRELSSLNSYLEQLRQMEKVLEEVADKPQTEFLMKFALVTSRLQKILSESPPPARLDIQLPVISDDFKFQVWKKMFRALMPALEELTFDPSSAHPSLVVSSSGRRVECSDQKAPPAGEDTRQFDKAVAVVAQQLLSQGEHYWEVEVGDKPRWALGVMAADASRRGRLHAVPSQGLWLLGLRDGKILEAHVEAKEPRALRTPERPPARIGLYLSFADGVLAFYDASNPDVLTPIFSFHERLPGPVYPIFDVCWHDKGKNAQPLLLVGPEQEQA
# notes: the plasmid methods describe mouse MG53 cDNA; also called GFP-C242A; not shown: GFP at the N-terminus
# Tests used:
# [1] = target: the molecule itself; test: oligomerization; Western blot without DTT of GFP-MG53 mutants from C2C12 cells
# Text: These mutant constructs were transiently expressed in C2C12 myoblast cells (FIG. 22).
Molecule,"auto-ubiquitination in vitro (high molecular-mass ladders, anti-MBP immunoblot) (UbCH5)","auto-ubiquitination in vitro (high molecular-mass ladders, anti-MBP immunoblot) (Ubc4)",binding result [1]
MBP-MG53 (recombinant maltose-binding protein fusion protein for MG53),High molecular-mass ladders derived from ubiquitination were observed when MBP-MG53 was incubated with Ubc4 or UbCH5 as E2,High molecular-mass ladders derived from ubiquitination were observed when MBP-MG53 was incubated with Ubc4 or UbCH5 as E2,
B1,,,no binding
